Reference: patent US20120230976

Target: mixture of gliadins (SIGMA Cat. No. G3375)

B1: neprilysin from Rothia mucilaginosa ATCC 25296 (RefSeq ZP_05367591) (protein)
chain: MTTNSGITKEWVDETVKPGDDFFRHVNGKWLATHEIPADRPKDGGLYTLRDNAEKHVRELVEKIAKEQPESRIGALYNSFMDVEKIEADGLEPLLKEIAPILNSATPSHLAVTLALLSRAGLPQLFAWYTSNDPKDPKNYTFFLYQSGLGLPDESYYREEKHEAACAAYVEHIARMFQLTGLAEGFGLTPEQAAQLVFTHESELARLHWNVVENRDAEATYNPYQATELDEKFPGFPFSQWLLALGADPETLGQVIVAQPSFFEGAAKLFTSIPLMSWKLWAVWTVLRSRAPFMYDELVQESFNFYGKTLSGTQQIRERWKRGVGAVEKALGEEIGQEYVAVHFPPSHKEKMLVLVGNLLEAYRESIESLDWMTEATRQKALEKLSKFVTKIGYPDKWRDFSALELVPGDLFENLRRTGAFDADWLIARKGQPVDKAEWLMTPQTVNAYYMPPANEIVFPAAILQPPYFNPDADDAANYGNIGMIIGHEIGHGFDDQGSRYDGDGKLESWWTEEDYAKFKERTAALVEQYNAYVPVGLDPKFHVNGELTLGENIGDLAGMSIALKAYRLALKKQGIESLADAPVIDGMTGIQRFFFSNARGWCTKSRPQHAEVMISVDPHSPDEFRVNGVVRNIDEFYEAFGVSEGDALYLAPEERVRIW
With B1 the “gliadin zymography (proteolytic activity)” value was “The clear bands observed in the zymogram gel confirmed proteolytic activity towards gliadin”.
